B5: cyclin B1, full-length (other)
chain: MALRVTRNTKINAENKAKVSMAGAKRVPVTVTAASKPGLRPRTALGDIGNKVSEELQARVPLKREAKTLGTGKGTVKALPKPVEKVPVCEPEVELAEPEPEPELEHVREEKLSPEPILVDNPSPSPMETSGCAPAEEYLCQAFSDVILAVSDVDADDGADPNLCSEYVKDIYAYLRQLEEEQSVRPKYLQGREVTGNMRAILIDWLIQVQMKFRLLQETMYMTVSIIDRFMQNSCVPKKMLQLVGVTAMFIASKYEEMYPPEIGDFAFVTNNTYTKHQIRQMEMKILRVLNFSLGRPLPLHFLRRASKVGEVDVEQHTLAKYLMELSMLDYDMVHFAPSQIAAGAFCLALKILDNGEWTPTLQHYLSYSEDSLLPVMQHLAKNVVMVNCGLTKHMTVKNKYAASKHAKISTLAQLNCTLVQNLSKAVTKA
notes: 47 kDa; also called Ccnb1; CCNB1
B7: mouse RFPL4, full-length (amino acid residues 1-287) (other, UniProt Q8VH31 1-287, looked up)
chain: MAHLFKEKSNCYFCFRCLESPVYLNCGYICCLKCLDSLEKSPEGDGVLCPTCSVVSLKEDIIHAKQLGALVTKIKNLEPQLNFILTMDQGMKIFQVTMTLDVDTAQNHLIISDDLLSVYYTPQKQARKKCAERFHPSPCVLGSSRFTSGRHYWEVVVGTSKEWDIGICKESINRKKAIHLSEKNGFWTVGVRAKKVYSASTDPLTVLRVNPRLRRVGIFLDMLEKSVSFWDLSDGSHIYTFLEIPDTDPFRPFFSPASSYPDGDQEQVLSICPVTNPGIFGIPVNPQ
notes: One entry is used for all tagged forms; CHO cells: C-terminal FLAG (pCMV-Tag4A) or C-terminal MYC (pCMV-Tag5A); Western blot: endogenous protein in mouse tissue lysates; also called mRFPL4; pGBKT7-RFPL4

Tests used:
[1] = target: B7; assay: yeast two-hybrid mating screen of the ovary cDNA library with pGBKT7-RFPL4 as bait
[2] = target: T1, HR6A (Ube2a), full-length (mouse, UniProt Q9Z255 1-152); assay: anti-FLAG co-immunoprecipitation from lysates of cotransfected CHO cells (FLAG-tagged cyclin B1)
T1 construct: also called pGADT7-HR6A; MYC-tagged HR6A
T1 sequence (Q9Z255 whole entry): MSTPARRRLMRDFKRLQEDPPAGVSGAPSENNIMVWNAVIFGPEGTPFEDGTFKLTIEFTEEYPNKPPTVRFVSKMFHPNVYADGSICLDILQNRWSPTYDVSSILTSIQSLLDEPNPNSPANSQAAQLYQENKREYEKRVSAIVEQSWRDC

[3] = target: B7; assay: yeast two-hybrid cotransformation
[4] = target: Lysosomal-associated protein 4 (LAPTM4A) (mouse, UniProt Q60961 1-233); assay: yeast two-hybrid cotransformation
[5] = target: T1, HR6A (Ube2a), full-length; assay: yeast two-hybrid cotransformant growth/fluorescence assay
Excerpt: (§1) Briefly, after inoculation, the initial fluorescence was checked and the cells were allowed to grow for 40 hr, and then the fluorescence of an oxygen sensitive dye using the [sequence] Biosensor kit (Clontech) was rechecked. Fluorescence was excited at 485 nm, and emission was read at 630 nm. To find the fold increase in fluorescence, an indication of yeast growth in selection media, the fluorescence intensity at time t=40 hr was divided by the initial intensity recorded at time t=0 hr (Fluorescence(t40)/Fluorescence(t0)). The values shown were the means of triplicate measurements of three independent transformants. Standard deviations were indicated by the error bars.

[6] = target: the molecule itself; assay: as above
Excerpt: as §1

cyclin B1, full-length = target: B5; assay: co-immunoprecipitation of 35S-labelled proteins translated in vitro in reticulocyte lysate
Description: The pGBKT7 (MYC-Tagged) and pGADT7 (HA-Tagged) vectors were used as templates for in vitro transcription/translation using [³⁵S]Met and the TNT T7 Coupled Reticulocyte Lysate System (Promega, Madison, Wis.). In vitro translated proteins were combined at room temperature for 1 h, and reciprocal co-immunoprecipitation experiments were performed using mouse anti-MYC monoclonal or rabbit anti-HA polyclonal antibodies (Clontech).
Epitope tagged bait and prey proteins were transcribed by T7 polymerase from pGBKT7 and pGADT7 templates without DNA binding or transactivation domains. As positive control vectors, pGBKT7-murine p53 (MYC-epitope tagged) and pGADT7-SV40 large T (HA-epitope tagged) were used. ³⁵S-methionine was included in translation mixtures to generate products detectable by autoradiography.

B1: Myosin light chain, alkali, non-muscle (MYLN) (other, mouse, UniProt Q60605 1-151, looked up)
chain: MCDFTEDQTAEFKEAFQLFDRTGDGKILYSQCGDVMRALGQNPTNAEVLKVLGNPKSDEMNVKVLDFEHFLPMLQTVAKNKDQGTYEDYVEGLRVFDKEGNGTVMGAEIRHVLVTLGEKMTEEEVEMLVAGHEDSNGCINYEAFVRHILSG
notes: Prey from the ovary cDNA library (pGADT7); Tags as for the other preys
- # of clones [1]: 3 clones

B2: Solute carrier family 25, member 5 (SLC25A5) (other, mouse, UniProt P51881 1-298, looked up)
chain: MTDAAVSFAKDFLAGGVAAAISKTAVAPIERVKLLLQVQHASKQITADKQYKGIIDCVVRIPKEQGVLSFWRGNLANVIRYFPTQALNFAFKDKYKQIFLGGVDKRTQFWRYFAGNLASGGAAGATSLCFVYPLDFARTRLAADVGKAGAEREFKGLGDCLVKIYKSDGIKGLYQGFNVSVQGIIIYRAAYFGIYDTAKGMLPDPKNTHIFISWMIAQSVTAVAGLTSYPFDTVRRRMMMQSGRKGTDIMYTGTLDCWRKIARDEGSKAFFKGAWSNVLRGMGGAFVLVLYDEIKKYT
notes: Prey from the ovary cDNA library (pGADT7)
- # of clones [1]: 1 clones

B3: Cytochrome C oxidase subunit II (MT-CO2) (other, mouse, UniProt P00405 1-227, looked up)
chain: MAYPFQLGLQDATSPIMEELMNFHDHTLMIVFLISSLVLYIISLMLTTKLTHTSTMDAQEVETIWTILPAVILIMIALPSLRILYMMDEINNPVLTVKTMGHQWYWSYEYTDYEDLCFDSYMIPTNDLKPGELRLLEVDNRVVLPMELPIRMLISSEDVLHSWAVPSLGLKTDAIPGRLNQATVTSNRPGLFYGQCSEICGSNHSFMPIVLEMVPLKYFENWSASMI
notes: as for B2
- # of clones [1]: 2 clones

B4: proteasome subunit β, type 1 (PSMB1) (other, mouse, UniProt O09061 1-240, looked up)
chain: MLSTAAYRDVERELGMGPHGSAGPVQLRFSPYAFNGGTVLAIAGEDFSIVASDTRLSEGFSIHTRDSPKCYKLTDKTVIGCSGFHGDCLTLTKIIEARLKMYKHSNNKAMTTGAIAAMLSTILYSRRFFPYYVYNIIGGLDEEGKGAVYSFDPVGSYQRDSFKAGGSASAMLQPLLDNQVGFKNMQNVEHVPLTLDRAMRLVKDVFISAAERDVYTGDALRICIVTKEGIREETVPLRKD
notes: In vitro: HA tagged; CHO cells: C-terminal MYC tag; 25 kDa; also called Proteasome beta type 1 subunit (PSMB1); pGADT7-PSMB1
- # of clones [1]: 7 clones

Binder: B5
- binding result [2]: binds

B6: Microfibrillar-associated protein 2 (MFAP2) (other, mouse, UniProt P55002 17-183, looked up)
chain: QGQYDLDPLPPFPDHVQYNHYGDQIDNADYYDYQEVSPRTPEEQFQSQQQVQQEVIPAPTPEPAAAGDLETEPTEPGPLDCREEQYPCTRLYSIHKPCKQCLNEVCFYSLRRVYVVNKEICVRTVCAHEELLRADLCRDKFSKCGVMAVSGLCQSVAASCARSCGGC
notes: as for B2
- binding result [3]: no binding
- # of clones [1]: 1 clones

Binder: B7
- binding result [4]: no binding
- binding result [5]: binds
- binding result [6]: no binding
- binding result (cyclin B1, full-length): binds

B8: ATP synthase, H+ transporting, mitochondrial F0 complex, subunit F (ATP5J) (other, mouse, UniProt P97450 1-108, looked up)
chain: MVLQRIFRLSSVLRSAVSVHLKRNIGVTAVAFNKELDPVQKLFVDKIREYKSKRQASGGPVDIGPEYQQDLDRELYKLKQMYGKGEMDTFPTFKFDDPKFEVIDKPQS
notes: as for B2
- binding result [3]: no binding
- # of clones [1]: 1 clones
